These are literature values, as cited in publication PMC5481609.

The term Kd denotes the free concentration of one partner at which half of the binding sites on the other are occupied at equilibrium, for simple one-to-one binding.

This data set has as its target IL-23 p19 (Homo sapiens) (UniProt Q9NPF7).

Sequence of IL-23 p19 (Homo sapiens) (Q9NPF7 20-189, chain 1 of 2): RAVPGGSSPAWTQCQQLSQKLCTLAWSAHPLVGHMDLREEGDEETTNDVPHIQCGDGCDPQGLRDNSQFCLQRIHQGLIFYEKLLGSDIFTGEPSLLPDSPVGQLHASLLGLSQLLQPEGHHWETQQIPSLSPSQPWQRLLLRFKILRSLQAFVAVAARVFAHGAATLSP
Sequence of IL-23 p19 (Homo sapiens) (P29460 23-328, chain 2 of 2, further chain): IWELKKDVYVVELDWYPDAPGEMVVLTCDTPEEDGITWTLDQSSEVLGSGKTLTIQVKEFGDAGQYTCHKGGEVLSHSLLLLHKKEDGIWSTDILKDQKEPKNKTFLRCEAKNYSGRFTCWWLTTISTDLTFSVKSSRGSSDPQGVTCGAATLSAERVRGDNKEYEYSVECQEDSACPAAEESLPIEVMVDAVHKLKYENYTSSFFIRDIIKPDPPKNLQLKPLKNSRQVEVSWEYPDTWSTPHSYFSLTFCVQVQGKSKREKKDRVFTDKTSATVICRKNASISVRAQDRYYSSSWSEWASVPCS

Consider brazikumab, for which the Kd was 0.138 nM.
